Experiment [1] has as its target T1, membrane-bound human IL-6R (human, UniProt P08887 20-468).
T1 construct: whole, on cells; also called mIL-6R; membrane IL-6R
T1 sequence (looked up): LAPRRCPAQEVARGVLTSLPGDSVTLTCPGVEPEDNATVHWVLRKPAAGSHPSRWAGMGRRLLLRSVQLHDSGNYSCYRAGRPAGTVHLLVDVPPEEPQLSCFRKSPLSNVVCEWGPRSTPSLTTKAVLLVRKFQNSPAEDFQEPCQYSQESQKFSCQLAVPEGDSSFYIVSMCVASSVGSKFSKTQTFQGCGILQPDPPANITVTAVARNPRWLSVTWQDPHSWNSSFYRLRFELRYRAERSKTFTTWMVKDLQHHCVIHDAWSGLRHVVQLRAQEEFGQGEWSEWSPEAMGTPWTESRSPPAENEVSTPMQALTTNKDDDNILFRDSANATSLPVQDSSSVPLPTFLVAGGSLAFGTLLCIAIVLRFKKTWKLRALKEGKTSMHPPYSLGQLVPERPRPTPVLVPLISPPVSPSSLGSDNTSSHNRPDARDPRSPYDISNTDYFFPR
In words: flow cytometry on HepG2 cells, goat anti-human IgG Alexa Fluor 647. The protocol:
Cell surface staining is performed on HepG2 cells with different doses of mAbs. […] Each experiment was performed in triplicates.
In general terms: In flow cytometry, cells or beads pass a laser one at a time.

Another experiment concerns the target T2, MUTANT 3 (mouse, UniProt P22272).
T2 construct: also called mouse IL-6R with human residues in D3, mutant 3
T2 sequence (receptor chain, looked up): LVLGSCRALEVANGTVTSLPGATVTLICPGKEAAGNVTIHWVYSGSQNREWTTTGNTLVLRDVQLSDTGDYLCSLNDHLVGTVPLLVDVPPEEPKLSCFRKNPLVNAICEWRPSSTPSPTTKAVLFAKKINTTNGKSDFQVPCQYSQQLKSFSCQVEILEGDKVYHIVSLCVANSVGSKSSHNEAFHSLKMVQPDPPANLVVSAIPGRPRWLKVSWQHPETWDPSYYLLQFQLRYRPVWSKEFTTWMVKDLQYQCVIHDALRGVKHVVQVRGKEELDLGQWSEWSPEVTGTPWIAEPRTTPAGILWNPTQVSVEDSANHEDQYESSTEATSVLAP
In words: flow cytometry on PEAK cells displaying the mutated mouse IL-6R, goat anti-human IgG Alexa Fluor 647. An excerpt:
(§1) An overlap extension PCR strategy was used to generate coding sequences specifying huIL-6R/mouseIL-6R chimeric proteins (FIG. 6A) and mouse IL-6R proteins containing human amino acid substitutions in D3 domains (FIG. 6B). Partially overlapping mutagenic oligonucleotide primers were used for PCR amplification of N- and C-terminal sequences on either side of huIL-6R/mouse IL-6R junctions or substituted regions, followed by gel isolation and annealing of the denatured PCR products. Full length PCR products were then digested by EcoRI and BglII and ligated into a pDISPLAY™ vector (Invitrogen). PEAK cells were grown in DMEM medium supplemented with 10% fetal calf serum and 4 mM L-glutamine. Cells were plated 12 to 24 h before transfection to have 40-50% confluency in 6 well plates. Transfections of pDISPLAY™ vectors (Invitrogen) were carried out by lipofection using TransIT® LT1 reagent (MirusBio) according manufacturer's specifications. Cells were grown for 48 h before harvesting and analysis by flow cytometry.
(§2) Cell surface staining was performed on PEAK cells displaying each variant of IL-6R and analyzed by flow cytometry (FIG. 6B-D). Cell surface expression of each chimeric IL-6R was assessed using an anti-human-CD126 PE or an anti-mouse CD126-PE antibody (BD Pharmingen).

In a further experiment the target is T3, MUTANT 5 (mouse, UniProt P22272).
T3 construct: also called mouse IL-6R with human residues in D3, mutant 5
T3 sequence (receptor chain, looked up): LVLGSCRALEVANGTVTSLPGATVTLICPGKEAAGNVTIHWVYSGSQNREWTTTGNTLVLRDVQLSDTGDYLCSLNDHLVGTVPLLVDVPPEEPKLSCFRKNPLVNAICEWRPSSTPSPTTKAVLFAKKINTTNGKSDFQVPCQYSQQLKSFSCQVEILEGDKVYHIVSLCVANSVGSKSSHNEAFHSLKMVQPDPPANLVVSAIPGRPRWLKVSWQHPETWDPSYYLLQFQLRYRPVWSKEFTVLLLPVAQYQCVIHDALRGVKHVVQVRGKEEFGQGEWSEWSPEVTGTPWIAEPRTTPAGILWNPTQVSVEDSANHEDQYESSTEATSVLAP
Described as above.
Text: as §1, §2

In another experiment the target is T4, MUTANT 1 (mouse, UniProt P22272).
T4 construct: also called mouse IL-6R with human residues in D3, mutant 1
T4 sequence (receptor chain, looked up): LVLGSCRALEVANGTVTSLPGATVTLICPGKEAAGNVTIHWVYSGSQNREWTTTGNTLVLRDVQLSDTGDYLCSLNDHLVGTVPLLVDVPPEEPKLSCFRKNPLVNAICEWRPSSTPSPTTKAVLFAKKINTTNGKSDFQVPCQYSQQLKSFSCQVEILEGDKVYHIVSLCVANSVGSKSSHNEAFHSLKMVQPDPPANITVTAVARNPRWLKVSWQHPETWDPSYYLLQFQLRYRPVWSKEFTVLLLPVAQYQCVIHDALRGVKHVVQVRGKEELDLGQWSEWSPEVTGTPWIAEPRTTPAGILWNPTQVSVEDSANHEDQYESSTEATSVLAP
Described as above.
Text: as §1, §2

The next experiment deals with T5, MUTANT 2 (mouse, UniProt P22272).
T5 construct: also called mouse IL-6R with human residues in D3, mutant 2
T5 sequence (receptor chain, looked up): T3 sequence (receptor chain, looked up) with P237A, V238E, W239R, E242T, F276L, G277D, Q278L, E280Q
The experiment is described as above.
Text: as §1, §2

Numbering of substitutions follows the chain as printed.

B1: NI-1201 wild type (NI-1201-WT) antibody (antibody, V domains shown)
VH: QVQLVQSGAEVKKPGSSVKVSCKASGGTFSSYAISWVRQAPGQGLEWMGGIIPLFDTTKYAQQFQGRVTITADESTSTAYMELSSLRSEDTAVFYCARDRDILTDYYPMGGMDVWGQGTTVTVSS
VL: AIQLTQSPSSLSASVGDRVTITCRASQGISSVLAWYQQKPGKAPKLLIYDASSLESGVPSRFSGSGSGTDFTLTISSLQPEDFATYYCQQSNSYPLTFGGGTKVEIKR
notes: Fully human monoclonal IgG (captured by anti-human IgG Fc in Biacore); also called 39B9 VL1
One may read the EC50 (read off the curve) as the concentration that produces a half-maximal response. A low value points to a more potent agent. In the case of B1, in experiment [1], the “EC50 (read off the curve)” value was approximately 0.2 µg/mL. Moreover, the binding result was “no binding” with MUTANT 3, “no binding” with MUTANT 5, “no binding” with MUTANT 1 and “binds” with MUTANT 2.

These data come from patent US20160130351A1 (NOVIMMUNE S A, published 2016).
